The record followed here is the supplement of paper PMC9112550, “Optimization of the antimicrobial peptide Bac7 by deep mutational scanning” (BMC Biology, 2022).
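Also: peptides expressed intracellularly from a pBAD plasmid library in pooled LB shake-flask culture, induced with 0.3% L-arabinose, DNA abundance read by NGS, three biological replicates, DESeq2 with apeglm shrinkage.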

The subject of the data set is Escherichia coli TOP10. Kind of data set: shrunken log2 fold change of peptide-encoding DNA abundance (4.5 h post-induction vs induction); higher = less antimicrobial activity (less host growth inhibition). The settings on record: time post-induction: 4.5 h; library: site-saturation at positions 5, 18, 19, 20.
As for RRIRKRPPRLPRPRPRPMRCPRP, the “shrunken log2 fold change” value was 1.16.
As for RRIRFRPPRLPRPRPRPAAAPRP, the figure is 0.551; as for RRIRKRPPRLPRPRPRPLYAPRP, 0.0609.
As for RRIRGRPPRLPRPRPRPSDIPRP, the figure is 0.399; as for RRIRIRPPRLPRPRPRPCPVPRP, -0.523.
Then RRIRKRPPRLPRPRPRPAVSPRP, with 0.0687.
Regarding RRIRRRPPRLPRPRPRPMGDPRP, the “shrunken log2 fold change” value was -0.251.
Then RRIRERPPRLPRPRPRPTIVPRP, with 0.03.
As for RRIRQRPPRLPRPRPRPQYIPRP, the figure is -0.0838; as for RRIRDRPPRLPRPRPRPRFLPRP, -0.201; as for RRIRHRPPRLPRPRPRPICDPRP, -0.174.
As for RRIRIRPPRLPRPRPRPLVQPRP, the figure is -0.884; as for RRIRCRPPRLPRPRPRPAYHPRP, -0.436.
As to RRIRKRPPRLPRPRPRPEWNPRP, the “shrunken log2 fold change” value worked out at 0.599.
As for RRIRDRPPRLPRPRPRPNWKPRP, the figure is -0.0238; as for RRIRARPPRLPRPRPRPSTRPRP, 0.23.
As for RRIRDRPPRLPRPRPRPVDVPRP, the “shrunken log2 fold change” value is -0.185.
For the sequence RRIRYRPPRLPRPRPRPFSRPRP, the “shrunken log2 fold change” value was -0.625.
As for RRIRYRPPRLPRPRPRPWPGPRP, the figure is -0.15; as for RRIRCRPPRLPRPRPRPGNSPRP, -0.429; as for RRIRKRPPRLPRPRPRPNPQPRP, 0.463.
Then RRIRRRPPRLPRPRPRPVYNPRP, with -0.154; and RRIRDRPPRLPRPRPRPDSYPRP, with -0.0336; and RRIRGRPPRLPRPRPRPVCRPRP, with 0.802.
Then RRIRTRPPRLPRPRPRPKMMPRP, with 0.332.
With RRIRKRPPRLPRPRPRPSHVPRP, the “shrunken log2 fold change” value worked out at 0.164.
As for RRIRQRPPRLPRPRPRPNLTPRP, the figure is -0.432; as for RRIRCRPPRLPRPRPRPYGHPRP, -0.0546; as for RRIRKRPPRLPRPRPRPYKNPRP, -0.176.
For RRIRQRPPRLPRPRPRPHLCPRP, the “shrunken log2 fold change” value worked out at 0.0292.
Then RRIRWRPPRLPRPRPRPDDCPRP, with -0.0829.
Then RRIRTRPPRLPRPRPRPSNRPRP, with -0.0802.
As for RRIRARPPRLPRPRPRPMVSPRP, the figure is 0.124; as for RRIRPRPPRLPRPRPRPHRLPRP, -0.0226.
As for RRIRARPPRLPRPRPRPDPPPRP, the “shrunken log2 fold change” value turned out to be 0.901.
Turning to RRIRPRPPRLPRPRPRPLKEPRP, the “shrunken log2 fold change” value was -0.228.
Then RRIRSRPPRLPRPRPRPGPRPRP, with 0.659.
As for RRIRFRPPRLPRPRPRPSRFPRP, the figure is -0.0395; as for RRIRERPPRLPRPRPRPGPEPRP, 0.129; as for RRIRPRPPRLPRPRPRPVLNPRP, -0.113.
As for RRIRLRPPRLPRPRPRPLIFPRP, the figure is -0.656; as for RRIRVRPPRLPRPRPRPYKRPRP, -0.0182; as for RRIRMRPPRLPRPRPRPREHPRP, 0.402.
RRIRPRPPRLPRPRPRPICMPRP: the “shrunken log2 fold change” value is -0.343.
Regarding RRIRGRPPRLPRPRPRPIPYPRP, the “shrunken log2 fold change” value was -0.1.
For the sequence RRIRSRPPRLPRPRPRPQWLPRP, the “shrunken log2 fold change” value was -0.32.
As for RRIRPRPPRLPRPRPRPKCMPRP, the figure is -0.222; as for RRIRCRPPRLPRPRPRPMCFPRP, 0.00335; as for RRIRSRPPRLPRPRPRPSMTPRP, -0.356.
As for RRIRMRPPRLPRPRPRPWAKPRP, the figure is 0.0317; as for RRIRARPPRLPRPRPRPMVHPRP, 0.0572; as for RRIRLRPPRLPRPRPRPPWEPRP, 0.192.
Then RRIRARPPRLPRPRPRPRPIPRP, with 0.719; and RRIRTRPPRLPRPRPRPRYDPRP, with -0.123; and RRIRARPPRLPRPRPRPTFAPRP, with 0.347.
On to RRIRARPPRLPRPRPRPYPSPRP, for which the “shrunken log2 fold change” value is -0.0433.
As for RRIRDRPPRLPRPRPRPRTVPRP, the “shrunken log2 fold change” value is -0.142.
As for RRIRTRPPRLPRPRPRPWAPPRP, the figure is 0.154.
As for RRIRDRPPRLPRPRPRPESHPRP, the figure is 0.0331; as for RRIRMRPPRLPRPRPRPAVQPRP, 0.0778; as for RRIRNRPPRLPRPRPRPQTKPRP, 0.173.
Then RRIRIRPPRLPRPRPRPRLNPRP, with -0.247; and RRIRMRPPRLPRPRPRPYVIPRP, with -0.125; and RRIRCRPPRLPRPRPRPSAHPRP, with -0.0707.
For RRIRMRPPRLPRPRPRPAFKPRP, the “shrunken log2 fold change” value is -0.323.
On to RRIRLRPPRLPRPRPRPPLWPRP, for which the “shrunken log2 fold change” value was 0.447.
As for RRIRWRPPRLPRPRPRPSNIPRP, the figure is -0.699.
Then RRIRGRPPRLPRPRPRPIYMPRP, with -0.191; and RRIRKRPPRLPRPRPRPQFEPRP, with 0.177.
Then RRIRDRPPRLPRPRPRPMWMPRP, with 0.149.
On to RRIRLRPPRLPRPRPRPSGIPRP, for which the “shrunken log2 fold change” value is -0.267.
As for RRIRERPPRLPRPRPRPEDGPRP, the “shrunken log2 fold change” value is -0.0324.
As for RRIRARPPRLPRPRPRPIFMPRP, the figure is 0.104; as for RRIRHRPPRLPRPRPRPYMNPRP, -1.04.
As for RRIRTRPPRLPRPRPRPPSPPRP, the figure is 0.236.
Then RRIRERPPRLPRPRPRPSVQPRP, with -0.204; and RRIRGRPPRLPRPRPRPKSSPRP, with 0.508.
Regarding RRIRARPPRLPRPRPRPFMYPRP, the “shrunken log2 fold change” value was -0.225.
Then RRIRWRPPRLPRPRPRPPLLPRP, with 0.395; and RRIRWRPPRLPRPRPRPKLAPRP, with 1.03; and RRIRYRPPRLPRPRPRPRIWPRP, with -0.0174.
As for RRIRRRPPRLPRPRPRPDYRPRP, the figure is 0.0309; as for RRIRKRPPRLPRPRPRPCPHPRP, 0.0793; as for RRIRSRPPRLPRPRPRPHYLPRP, -0.403.
Then RRIRPRPPRLPRPRPRPSPGPRP, with 0.0372; and RRIRRRPPRLPRPRPRPAYGPRP, with 0.286.
Consider RRIRDRPPRLPRPRPRPDMVPRP, for which the “shrunken log2 fold change” value turned out to be 0.00109.
As for RRIRFRPPRLPRPRPRPWVQPRP, the figure is -0.116; as for RRIRIRPPRLPRPRPRPMTCPRP, -0.00783.
Then RRIRNRPPRLPRPRPRPWVCPRP, with 0.037.
On to RRIRDRPPRLPRPRPRPALFPRP, for which the “shrunken log2 fold change” value turned out to be 0.99.
As for RRIRKRPPRLPRPRPRPDNFPRP, the figure is -0.0455; as for RRIRIRPPRLPRPRPRPFEIPRP, -0.0373; as for RRIRPRPPRLPRPRPRPAYPPRP, 0.0124.
On to RRIRPRPPRLPRPRPRPDYSPRP, for which the “shrunken log2 fold change” value is -0.815.
As for RRIRVRPPRLPRPRPRPPHDPRP, the “shrunken log2 fold change” value is 0.65.
Then RRIRTRPPRLPRPRPRPVLHPRP, with -0.139; and RRIRSRPPRLPRPRPRPINVPRP, with -0.418.
On to RRIRPRPPRLPRPRPRPMPDPRP, for which the “shrunken log2 fold change” value was found to be 0.163.
For RRIRRRPPRLPRPRPRPFETPRP, the “shrunken log2 fold change” value is -0.207.
Then RRIRRRPPRLPRPRPRPLFKPRP, with -0.00471; and RRIRGRPPRLPRPRPRPLAAPRP, with 1.91; and RRIRARPPRLPRPRPRPKQQPRP, with 0.569.
As for RRIRNRPPRLPRPRPRPLMNPRP, the figure is -0.853.
Regarding RRIRRRPPRLPRPRPRPMCLPRP, the “shrunken log2 fold change” value is 0.0511.
On to RRIRERPPRLPRPRPRPGAWPRP, for which the “shrunken log2 fold change” value is -0.0396.
As for RRIRIRPPRLPRPRPRPVEVPRP, the figure is 0.0961.
Consider RRIRCRPPRLPRPRPRPGSCPRP, for which the “shrunken log2 fold change” value was -0.0844.
As for RRIRRRPPRLPRPRPRPTHPPRP, the figure is 0.543; as for RRIRPRPPRLPRPRPRPCNHPRP, -0.227; as for RRIRRRPPRLPRPRPRPYGYPRP, 0.0179.
For the sequence RRIRVRPPRLPRPRPRPVHLPRP, the “shrunken log2 fold change” value came out at 0.0586.
Consider RRIRFRPPRLPRPRPRPQKPPRP, for which the “shrunken log2 fold change” value was found to be 0.121.
As for RRIRERPPRLPRPRPRPLNDPRP, the figure is -0.272; as for RRIRIRPPRLPRPRPRPLPHPRP, -0.0305; as for RRIRRRPPRLPRPRPRPYIMPRP, -0.733.
In the case of RRIRCRPPRLPRPRPRPWTAPRP, the “shrunken log2 fold change” value is -0.212.
Consider RRIRVRPPRLPRPRPRPQLQPRP, for which the “shrunken log2 fold change” value was -0.104.
Then RRIRGRPPRLPRPRPRPSQMPRP, with 0.0878; and RRIRWRPPRLPRPRPRPAQNPRP, with 0.437.
As for RRIRKRPPRLPRPRPRPTGAPRP, the figure is 1.09; as for RRIRMRPPRLPRPRPRPARSPRP, 1.05; as for RRIRSRPPRLPRPRPRPGRCPRP, 0.247.
As for RRIRHRPPRLPRPRPRPIYSPRP, the figure is 0.0188; as for RRIRGRPPRLPRPRPRPHVRPRP, 0.427.
